The values below come from publication PMC11853025.

The target in test [1] is iC3b (UniProt P01024). The experiment in a line: SPR; C3b deposited on a CM5 chip (amine-coupled seed, then convertase-mediated deposition to about 5000 RU), iC3b and C3dg made from it on the chip; αI domains injected as dilution series, 120 s; Biacore T200, 25 °C; HBST (10 mM HEPES, 150 mM NaCl, 0.005% Tween-20, pH 7.4) with 1 mM MgCl2; Langmuir 1:1 fit, KD calculated.
For test [2], the target named is iC3b (UniProt P01024). The experiment in a line: SPR; competitive: αI domains at 5 µM preincubated with simvastatin (3-100 µM), injected over immobilised iC3b or ICAM-1; HBST with 1 mM MgCl2 and 5% DMSO; signal as percent of the non-inhibited signal. For orientation: In SPR one partner is held on a chip, and binding of the other changes the refractive index at the surface.

The target of test [3] is ICAM-1 (recombinant, Sino Biological 10346-H03H) (UniProt P05362). Described as above.
Sequence of ICAM-1 (recombinant, Sino Biological 10346-H03H) (P05362 28-480): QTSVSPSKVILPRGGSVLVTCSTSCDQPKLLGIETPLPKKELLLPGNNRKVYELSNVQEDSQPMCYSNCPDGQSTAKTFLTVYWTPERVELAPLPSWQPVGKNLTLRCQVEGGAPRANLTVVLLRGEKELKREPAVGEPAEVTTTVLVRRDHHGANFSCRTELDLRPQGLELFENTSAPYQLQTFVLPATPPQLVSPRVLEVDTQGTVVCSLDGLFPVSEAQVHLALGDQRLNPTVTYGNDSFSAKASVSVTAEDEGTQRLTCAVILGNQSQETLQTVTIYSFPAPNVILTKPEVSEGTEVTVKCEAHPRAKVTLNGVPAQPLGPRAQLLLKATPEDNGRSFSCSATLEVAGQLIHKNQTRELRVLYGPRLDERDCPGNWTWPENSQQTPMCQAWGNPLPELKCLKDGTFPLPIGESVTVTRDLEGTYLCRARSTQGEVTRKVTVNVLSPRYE

As a reminder, the Kd is the constant that tells how readily two partners part at equilibrium. As to “CR3 αMI domain, high-affinity (HA) variant p.I332G (from UniProt P11215 146-334) (domain or fragment)”, the Kd with iC3b [1] is 1.8 µM. Moreover, the residual binding activity with simvastatin (percent of the non-inhibited signal) with iC3b [2] is 77%. In the case of “CR3 αMI domain, wild type (WT) (from UniProt P11215 146-334) (domain or fragment)”, the Kd with iC3b [1] is 15 µM. As for “LFA-1 αLI domain, high-affinity (HA) variant p.K312C/K319C (domain or fragment)”, in test [3], the residual binding activity with simvastatin (percent of the non-inhibited signal) was found to be 83%.
